Laboratory results published in article doi:10.1101/2023.04.17.537198, “Bitesize bundles F-actin and influences actin remodeling in syncytial Drosophila embryo development” (bioRxiv, 2025).

Experiments:
[1] = molecular target: T1, Rabbit skeletal muscle actin, polymerised (F-actin) (rabbit, UniProt P68135 1-377); assay: co-sedimentation; high-speed pelleting: 0.5 uM BtszB-CT with 0, 0.1, 0.25, 0.5, 1, 2, 4 uM F-actin, 30 min at room temperature, 316,000 x g for 20 min at 25°C; supernatant and pellet on Coomassie gels, densitometry; BtszB-CT pelleted without F-actin subtracted; fit to a Hill equation (cooperative binding model); settings: both partners purified
[2] = molecular target: T1, Rabbit skeletal muscle actin, …; assay: cell-based or functional assay

B1: C-terminal fragment of Bitesize isoform B (BtszB-CT) (domain or fragment)
chain: VKGQVEFAMQYNYKLSALEVHVVRCKDLAAVDAKRNRSDPYVKVYLLPDKSKAGKRKTKVKKHTLNPIFDETMRFHTPISSLESRTLWLTVWHSDMFGRNDFLGEVSVNLQGRLFDNPQSQWYLLQERSEPFDEVATYRGDIVVGLKYIPPENIKSSFFSRGSSITGSSSNLRKFGGSIKSVASKSERTSKGGQLHVLVKEAKHLSPIKANGTCDAFCKSYLLPDRTRSSKQKTPVVKRTLHPSWNYTFVYEDVSLEELSERALELTVWDHDRLASNEFVGGIRFSLGTGRSYGRQVEWMDATGKELSLWQNMLDRPNFWVEGSLVLRSSLDGIRANLP
Kd [1]: 450 nM
TIRF microscopy bundling assay: filament/bundle fluorescence intensity at FWHM, normalised to the mean of the control reaction (2 uM F-actin), with 1 uM BtszB-CT [2]: 3.4 fold of the control reaction (2 uM F-actin)
